Measured values: PMC4624675 (2015)

Target: C-terminal Tandem UBL domain of human USP7 (TUD^USP7), wild type (human)
Experiment: ITC

C-terminal Tandem UBL domain of human USP7 (TUD^USP7), wild type (human), sequence (chain, as listed by the source): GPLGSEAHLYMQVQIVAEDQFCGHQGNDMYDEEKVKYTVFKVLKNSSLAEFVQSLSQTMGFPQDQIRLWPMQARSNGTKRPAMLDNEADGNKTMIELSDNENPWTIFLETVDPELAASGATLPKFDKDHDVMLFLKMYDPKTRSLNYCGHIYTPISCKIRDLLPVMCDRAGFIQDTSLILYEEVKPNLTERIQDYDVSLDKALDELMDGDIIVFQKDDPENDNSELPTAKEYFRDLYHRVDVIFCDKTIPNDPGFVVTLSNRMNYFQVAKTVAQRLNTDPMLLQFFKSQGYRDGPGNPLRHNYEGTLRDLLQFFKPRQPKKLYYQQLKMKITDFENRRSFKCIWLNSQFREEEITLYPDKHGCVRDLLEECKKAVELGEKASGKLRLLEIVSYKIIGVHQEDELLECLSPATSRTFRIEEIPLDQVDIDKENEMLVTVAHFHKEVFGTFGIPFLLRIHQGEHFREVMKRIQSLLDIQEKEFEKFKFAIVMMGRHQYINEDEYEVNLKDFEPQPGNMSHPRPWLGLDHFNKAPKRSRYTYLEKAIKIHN

Binder | Kd [nM]
KGKGKGKGKGKP [KG-Linker of DNMT1 (GST pull-down bait)] | 3720
TGKGKWKRKSAGGGPSRAGSPRRTSKKTKVEPY [UHRF1 (642–674) (GST pull-down bait)] | 1540
SGPRGPRKCARKTRHAETSGA [GST-tagged ICP0 (613–633), wild type] | 270
